From patent US7465453B2, “Polypeptide fragments of CKLF1” (Peking University, priority 2004, dated 2008)

Tests used:
[1] = molecular target: T1, CCR4 (Homo sapiens, UniProt P51679); test: Chemotaxis assay (48-well microchemotaxis chamber) of HEK293 cells transfected with CCR4; format: cell-based; details: for chemotaxis induced after PTX pretreatment: CCR4-transfected HEK293 cells treated with 100 ng/ml PTX at 37° C. for 30 min; for desensitization of the receptor to subsequent stimulation with TARC, C27 or C19 (chemotaxis): HEK293/CCR4, pretreatment TARC or 2 μg/ml C27 or C19, 37° C., 30 min
T1 construct: The cDNA fragments covering the open reading frames for various chemokine receptors were obtained as follows; expressed in transfected cells; host or cells: HEK293 (transient, electroporation)
T1 sequence (P51679 1-360): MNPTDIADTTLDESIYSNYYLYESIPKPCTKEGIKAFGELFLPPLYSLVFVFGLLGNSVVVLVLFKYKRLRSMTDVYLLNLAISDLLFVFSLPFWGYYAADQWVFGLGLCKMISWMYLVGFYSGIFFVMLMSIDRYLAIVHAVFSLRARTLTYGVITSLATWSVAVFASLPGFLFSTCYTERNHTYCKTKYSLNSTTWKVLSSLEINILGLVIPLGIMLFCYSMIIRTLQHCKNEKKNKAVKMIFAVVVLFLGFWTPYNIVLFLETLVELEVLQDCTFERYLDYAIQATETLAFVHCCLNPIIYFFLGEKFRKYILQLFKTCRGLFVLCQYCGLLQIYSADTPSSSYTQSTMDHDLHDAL
Method: HEK293 cells were grown in RPMI 1640 supplemented with 10% heat-inactivated FBS, penicillin (100 U/ml) and streptomycin (100 μg/ml). Every 4×10^6 HEK293 cells in 400 μl were transiently transfected by electroporation with 15 μg of the expression plasmid at 120 V, 20 ms using an electric pulse generator (Electro Square Porator ECM 830, BTX, San Diego, Calif.), and calcium mobilization assay and chemotaxis assays were performed 48 hours later.
The chemotaxis assay was performed using a 48-well microchemotaxis chamber (Neutroprobe; Cabin John, Md., U.S.A.). Chemoattractants were diluted in HEPES-buffered RPMI 1640 medium supplemented with 0.1% BSA and placed in the lower wells (28 μl/well). HEK293 cells transfected with pcDI-CCR4, -CCR5 were resuspended in the same medium at 2×10^6 cells/ml and added to the upper wells (50 μl/well), which were separated from the lower wells by a polyvinylpyrrolidone-free polycarbonate filter with 8-μm pores. The chamber was incubated for 2 hours at 37° C. in 5% CO2 and 95% air. Filters were removed from the chamber, washed, fixed, and stained with Three Step Stain Set. Cells that migrated were counted in 5 randomly selected high power fields (400×) per well. The chemotactic index (CI) was calculated from the number of cells that migrated to the control. Significant chemotaxis was defined as CI>2. In some experiments, cells were pretreated with TARC, RANTES, purified CKLF-myc protein or secreted CKLF1 peptides for 30 min. at 37° C., or 100 ng/ml PTX (ALEXIS Biochemicals Corporation) for 6 hours at 37° C. prior to subsequent stimulations.

[2] = molecular target: T1, CCR4; test: Internalization of CCR4-EGFP in transiently transfected HEK293 cells; format: cell-based; details: HEK293 cells transfected with pCCR4-EGFP; 37° C., 2 hours
Method: The cDNA fragment covering the open reading frame for CCR4 chemokine receptor was cloned into pEGFP-N1 vector (CLONTECH). pCCR4-EGFP transiently expressing HEK293 cells were cultured in glass-bottom dishes in RPMI 1640 with 10% FBS. After 16 to 24 hours serum starvation, cells were treated with CKLF1 C-terminal peptides or TARC at 37° C. for 2 hours. Cells were washed with cold PBS and fixed with 2% paraformaldehyde in PBS. The subcellular localization of CCR4-EGFP protein was visualized using a Leica TCS-NT confocal fluorescence microscope with a 63× oil immersion lens (Wetzler, Heidelberg, Germany). The excitation and emission wavelengths were 488 and 515-540 nm, respectively.

Substance | migration (chemotaxis) of transfected cells ([1]; CCR4-transfected HEK293 cells) | chemotaxis induced after PTX pretreatment [1] | desensitization of the receptor to subsequent stimulation with TARC, C27 or C19 (chemotaxis) [1] | internalization of CCR4-EGFP [2]
ALIYRKL LFNPSGPYQKKPVHEKKEVL (ALIYRKLLFNPSGPYQKKPVHEKKEVL; listed as Homo sapiens) [C27] | could induce migration | completely abolished by PTX | could desensitize the receptor | could induce internalization of CCR4-EGFP
FNPSGPYQKKPVHEKKEVL (listed as Homo sapiens) [C19] |  | completely abolished by PTX | could desensitize the receptor | could induce internalization of CCR4-EGFP
